Reference: the nanobody polyreactivity screen of Harvey et al. (2022)

Test: yeast display, Sf9 membrane polyspecificity reagent, FACS + sequencing; frameworks hold sequencing errors
How it was run: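 A nanobody's polyreactivity label depends on the gate it was sorted from. Yeast display cells were stained with 10% biotinylated, detergent-solubilized Sf9 membrane reagent for 1 hour at 4 °C, enriched on streptavidin microbeads and sorted by FACS. The low and high (top ~1%) gates were set on anti-HA fluorescence for expression and streptavidin fluorescence for reagent binding.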

Row | Sequence | polyreactivity (PSR sort gate)
1 | QVQLEESGGGLVQAGGSLRLSCAASGNIFLIYAMGWYRQAPRKEVEMVAAISFSDDTTDYADSVKGRFTSSRDNAKNTVYLQLNSLKQEDTAVYFCAAELYYDVANTQYDYWGQGTQVTVSS | high polyreactivity
2 | QVQLVESGGGLVQAGGSLRLSCAASGLTFSDYAMGWYRQAPGKERELVAAITYNGGSTYYADSVKGRFTISRDNAKNTVYLQMNSLKPEDTAVYYCAADTDDVGLRDYWGQGTQVTVSS | low polyreactivity
3 | QVQLVESGGGLVQAGGSLRLSCAASGLTFSTNDMGWYRQAPGKEREFVAAISFNGGSTYYADSVKGRFTLSRDNAKNTVYLQMNSLKPEDTAVYYCAAGSDYGLYYGFDFWGQGTQVTVSS | high polyreactivity
4 | QVQLVESGGGLVQAGGSLRLSCAASGSTFRGYDMGWYRQAPGKERELVAAITTSGGTTYYADSVKGRFTISRDNAKNTVYLQMNSLKPEDTAVYYCAARYPRAGVPRRPTAYVRYGYWGQGTQVTVSS | high polyreactivity
5 | QVQLVESGGGLVQAGGSLRLSCAASGSTFYGYTMGWYRQAPGKERELVAVITSGGSTYYADSVKGRFTISRDNAKNTVYLQMNSLKPEDTAVYYCAKRYGYPAYGRPCRIGRTYDYWGQGTQVTVSS | low polyreactivity
6 | QLQHVESGGGLVQAGGSLRLSCDASGYTFAWYAMGWYIQAPGKESELVAAISVSGGSTYYADSVKGRFTISRDNAKNTVYIQMNSLKPEDTAVYYCAARRYLGYSASYDYWGQGTQVTVSS | high polyreactivity
7 | QVQLVESGGGLVQAGGSLRLSCAASGSTFHYYAMGWYRQAPGKERELVAAINSGARTYYADSVKGRFTISRDNAKNTVYLQMNSLKPEDTAVYYCNKAFQWSGGQVSYDFWGQGTQVTVSS | low polyreactivity
8 | QVQLVESGGGLVQAGGSLRLSCAASGGTFPYNAMGWYRQAPGKERELVAAISSSGTSTYYADSVKGRFTISRDNAKNTVYLQMNSLKPEDTAVYYCNDYFKRYDYWGQGTQVTVSS | high polyreactivity
9 | QVQLVESGGGLVQARGSLRLSCAASGRILYSYAMGWYRQAPGKERELVASISLSGGRTYADSVKGRFTISRDNAKNTVYLQMNSLKPEDTAVYYCNDRIRTSRYLWPFDYWGQGTQVTVSS | high polyreactivity
10 | QVQLVESGGGLVQAGGSLRLSCAASGRIFRYYAMGWYRQAPGKERELVAAITRGGSTNYADSVKGRFTISRDNAKNTVYLQMNSLKPEDTAVYYCATRQSWYPRWMDYWGQGTQVTVSS | high polyreactivity
11 | EEELVESGGGLVQAGGSLRLSCAASGSTFLVYAMGWYRQAPGKERELVAVITSGGRTNYADSVKGRFTISRDNAKNTVYLQMNSLKPEDTAVYYCAVDGRSVPAWWPRFDYWGQGTQVTVSS | low polyreactivity
12 | QVQLVESGGGLVQPGGSLRLSCAASGGIFYGYAMGWYRQAPGKERELVAAISSTGGRTYYADSVKGRFTISRDNAKNTVYLQMNSLKPEDTAVYYCAAEDFTRQFEYWGQGTQVTVSS | low polyreactivity
13 | QVQLVEAGGGLVQAGVSLRLSCAASGLTFVPNAMGWYRQAPGKERELVAAISNNGGRTYYADSVKGRFTISRDNAKNTVYLQMNSLKPEDTAVYYCAKYLSPGERHSYDYWGQGTQVTVSS | high polyreactivity
14 | QVQLVESGGGLVQAGGSLRLSCAASGRIFRGNTMGWYRQAPGKERELVAAITIRGRTYYADSVKGRFTISRDNAKNTVYLQMNSLKPEDTAVYYCAVASAGDNDYWGQGTQVTVSS | low polyreactivity
15 | QVQLVESGGGLVQAGGSLRLSCAASGSIFTSNAMGWYRQAPVKERELVASISSDGSTKYADSVKGRFTISRDNAKNTVYLQMNSLKPEDTAVYYCAADLGYWVYVEYDYWGQGTQVTVSS | low polyreactivity
16 | QVQLVESGGGLVQAGGSLRLSCAASGFTFYYYAMGWYRQAPGKERELVAAISSRGGNTYYADSVKGRFTISRDNAKNTVYLQMNSLKPEDTAVYYCASVPLKYDYWGQGTQVTVSS | high polyreactivity
17 | QVQLVESGGGLVQAGGSLRLSCAASGSIFSRNAMAWYRQAPGKERELVAAISGSGGSTYYADSVKGRFTISRDNAKNTVYLQMNSLKPEDTAVYYCNKFGYHREYDYWGQGTQVTVSS | low polyreactivity
18 | QVQLVESGGGLVQAGGSLRLSCAASGRNFARYVMGWYSQAPGKERELVASISNSGGSTYYADSVKGRFTISRDNAKNTVYLQMNSLKPEDTAVYYCARRYYYYTSYRYDYWGQGTQVTVSS | high polyreactivity
19 | QVQLVESGGGLVQAGGSLRLSCAASGRIFSKYGMGWYRQAPGKETEFVAAISGSGTNTYYADSVKGRFTISRDNAKNTVYLQMNSLKPEDTAVYYCAKRKSVRSTPSYEYWGQGTQVTVSS | high polyreactivity
20 | QVQLVESGGGLVQAGGSLRLRCAASGSTFGKNAMGWYRQAPGKERELVAAISKNGGSTYYADSVKGRFTISRDNAKNTVYILMNSLKPEDTAVYYCNTRRKNFVKSSQVEYWGQGTQVTVSS | high polyreactivity
21 | QVHIVESGAGLVQAGGSLRLSCAASGSIFRYNAMGWYRQAPGKEREFVAAITYSGGSTYYADSVTGRFTISRDNAKNTLFLQMNSLKPEDTAVYYCAAGYCSRGSRDGYWGQGTQVSVSS | low polyreactivity
22 | QVQLVESGGGLVQAGGSLRLSCAASGSIFGGYTMGWYRQAPGKERELVAAISRRGGNTYYADSVKGRFTISRDNAKNTVYLQMNSMKPEDSAVYYCAVRWPSARIPVKLDYWGQGTQVNVSS | high polyreactivity

Row | Sequence | polyreactivity (PSR sort gate)
23 | QVQLVESGGGLVQAGGSLRLSCAASGSTLVGYDMGWYRQAHGKEMELVADITSTGSTNYADSVKGSFTISRDNAKNTVYLQMNSLKPEDTAVYYCAADLYFYIYSYNYWGQGTQVTVSS | low polyreactivity
24 | QVQLVESGGGLVQAGGSLRLSCAASGIIFGGYAMGWYRQAPGKERELVASITWGGGSTYYADSVKGRFTISRDNAKNTVYLQMNSLKPEDTAVYYCNKRGYPGYDWGQGTQVTVSS | low polyreactivity
25 | QVQLVESGGGLVQAGGSLRLSCAASGRIFRLYAMGWYRQAPGKERELVAAISKSGGSTYYADSVKGRFTFSRDNAKNTVYLQMNSLKPEDTAVYYCAADYRTHGGYEGTFDYWGQGTQVTVSS | low polyreactivity
26 | QVQLVESGGGLVQAGGSLRLSCAASGYTFVLYAMGWYRQAPGKERELVAAIRWSGGTTYYADSVKGRFTISRDNAKNTVYCQMNSLKPEDTAVYYCAGWDYTGNVVTGDYWGQCTQVTVSS | high polyreactivity
27 | QVHLVESGGGLVQAGGSLRLSCAASGRTFGWNVMGWYRQAPGTERELVAAISGSGGSTYYADSVKGRFTISRDNAKNTVYLQMNSLKPEDTAVYYCAALYGPGREYDYWGQGTQVTVSS | low polyreactivity
28 | QDQLVESGGGLVQAGGSLRLSCAASGRTFPPYGMGWSRQAPGKERELVAAISKSSGSTNYADSVKGRFTISRDNAKNTVYLQMNSLKPEDTAVYYFNVDLYRWSKLAGAYRMDYWGQGTQVTVSS | low polyreactivity
29 | QVQLVESGGGLVQAGGRLRLSCAASGIILYGYAMGWYRQAPGKARELVAAITWSGGSTYYADSVKGRFTISRDNAKNTVYLQMNSLKPEDTAVYYCAVDVHTSADASLPQEYDYWGQGTQVTVSS | low polyreactivity
30 | QFQLVESGGGLVPAGGSLRLSCAASGRIFTGNAMGWSRQAPGKERELVASITYSDGSTYYADSVKGRFTISRDNATNTVYLKMNSLKPEDTAVYYCAADIRWGQGTQVTVSS | low polyreactivity
31 | QVEHVDSGGGLVQAGGSLRLSCAASGRTIWDYMGWYRQAPGKEREVVATITSSGGSTYYADSVKGRFTISRDNAKNTVYLQMNSLKPEDTAVYYCNADWYLWSTFAQGYGYWGQGTQVTVSS | high polyreactivity
32 | QVQLVESGGGLVQAGGSLRLSCAASGSIFWYYAMGWYRQAPGKERELVAAISTSGTSTYYADSVKGRFTISRDNAKNTVYLQMNSLKPEDSAVYYCAKRSGARHRLMDYWGQGTQVTVSS | low polyreactivity
33 | QVQRVESGGGLVKAGGRLRLSSAASGGTFKRYTMGWYRQAPGKETELVARIHYRTGSTYYADSVKGRFTISRDNAKNTVYLQMNSLKPEDTAVYYCAAREWYGFAFDYWGQGTQVTVSS | high polyreactivity
34 | QVQLLESWGGLVQAGGSLRLSCAASGFIFRGYAMGWYRQAPGKDRELVAAISTGGGRTYYADSVKGRFTISRDNAKNTVYLQMNSLKPDDTAVYYCIRRSYTQVLMDYWGQGTQVTVSS | high polyreactivity
35 | QVQLVESRGGLVQAGGSLRLSCAASGYIINAYARGWYRQAPGKERELVAAISWSSDSTYYADSVKGRFTISRDIAKNTVYLQMNSLKPEVTAVYYCAAPYITPYGTYVFSSDYWGQGTQVTVSS | low polyreactivity
36 | QVQHVDTGGGLVQAGGSLRLSCAASGSIFGRYAMGWSRQAPGKERELVASINWNSGSTYYADSVKGRFTISRDNAKYTVYLQMNSLKPEDTAVYYCAAAALGYYGYRGFDYWGQGTQVTVSS | low polyreactivity
37 | QVQLVESGGGLVQAGGSLRLSCAASGSTFNRYAMGWYRQAPGKERELVASITTSDSTNYADSVNGRFTISRDNANNTVFLQINSLNPEDTAVYYCNAEVRGVWYTYDYWGQGTHVTVSS | low polyreactivity
38 | QVQLVESGGGLVQAGGRLRLSCAASGSTFYSNAMGWYRQAPGKERELVASIRFSGVITTYADSVKGRFTISRDNAKNTVYLQMNSLKPEDTAVYYCDAGYLSTTAYDYWGQGTQVTVSS | low polyreactivity
39 | QVQLVESGGGLVQAGGSLRLSCAASVSTFDGYAMGWYRQAPGKERELVAAISSNGGSTYYADSVKGRFTISRDNAKNTVYLQMNSLKPEDTAVYYCNTYRSTVYSWTHLLYDYWGQGTQVTVSS | low polyreactivity
40 | QVQLVESGGGLVQAGGSLRLSCAASGRIFTRYAMGWYRQAPGKERELVAVITRSGGSTYYADSVKGRFTISRDNAKNTVYLQMNSLKPEDTAVYYCNVDETGVLVAYSFDYWGQGTQVTVSS | low polyreactivity
41 | QVQLVESGGGLVQAGGSLRLSCAASGIIFQPYTMGWYRQAPGKERELVAAISYSGGSTYYADSVKGRFTISRDNAKNTVYLQMNSLKPEDTAVYYCAARRYPYSGTHRGFYYWGQGTQVTVSS | high polyreactivity
42 | QVQLVESGGGLVQSGGSLRLSCAASGITFFEYAMGWYRQAPGKERELVAVITSGGSTNYADSVKGRFTISRDNAKNTVYLQMNSLKPEDTAVYYCNALVVKYRWWYDYYYWGQGTQVTVSS | low polyreactivity
43 | QVQLLESGGGLVQAGGSLRLTCAASVIIFYPYAMVWYRQAPGKERELVAAISIGGGSTYYADSVKGRFTISRDNAKNTVYLQMNSLKPEDTAVYYCAAGTPYGILGYYYWGQGTQVTVSS | low polyreactivity
